{"source": "patent US20190302117", "proteins": {"B1": {"name": "GST-FLT3 564-993 (intracellular portion of human FLT3 fused to GST) (protein)", "chain": "HKYKKQFRYESQLQMVQVTGSSDNEYFYVDFREYEYDLKWEFPRENLEFGKVLGSGAFGKVMNATAYGISKTGVSIQVAVKMLKEKADSSEREALMSELKMMTQLGSHENIVNLLGACTLSGPIYLIFEYCCYGDLLNYLRSKREKFHRTWTEIFKEHNFSFYPTFQSHPNSSMPGSREVQIHPDSDQISGLHGNSFHSEDEIEYENQKRLEEEEDLNVLTFEDLLCFAYQVAKGMEFLEFKSCVHRDLAARNVLVTHGKVVKICDFGLARDIMSDSNYVVRGNARLPVKWMAPESLFEGIYTIKSDVWSYGILLWEIFSLGVNPYPGIPVDANFYKLIQNGFKMDQPFYATEEIYIIMQSCWAFDSRKRPSFPNLTSFLGCQLADAEEAMYQNVDGRVSECPHTYQNRRPFSREMDLGLLSPQAQVEDS"}, "B2": {"name": "His6-ALK 1090-1416 (protein)", "chain": "HHHHHHTDYNPNYCFAGKTSSISDLKEVPRKNITLIRGLGHGAFGEVYEGQVSGMPNDPSPLQVAVKTLPEVCSEQDELDFLMEALIISKFNHQNIVRCIGVSLQSLPRFILLELMAGGDLKSFLRETRPRPSQPSSLAMLDLLHVARDIACGCQYLEENHFIHRDIAARNCLLTCPGPGRVAKIGDFGMARDIYRASYYRKGGCAMLPVKWMPPEAFMEGIFTSKTDTWSFGVLLWEIFSLGYMPYPSKSNQEVLEFVTSGGRMDPPKNCPGPVYRIMTQCWQHQPEDRPNFAIILERIEYCTQDPDVINTALPIEYGPLVEEEEKVPVRPK"}, "B3": {"name": "BTK as GST fusion protein (protein)", "chain": "MAAVILESIFLKRSQQKKKTSPLNFKKRLFLLTVHKLSYYEYDFERGRRGSKKGSIDVEKITCVETVVPEKNPPPERQIPRRGEESSEMEQISIIERFPYPFQVVYDEGPLYVFSPTEELRKRWIHQLKNVIRYNSDLVQKYHPCFWIDGQYLCCSQTAKNAMGCQILENRNGSLKPGSSHRKTKKPLPPTPEEDQILKKPLPPEPAAAPVSTSELKKVVALYDYMPMNANDLQLRKGDEYFILEESNLPWWRARDKNGQEGYIPSNYVTEAEDSIEMYEWYSKHMTRSQAEQLLKQEGKEGGFIVRDSSKAGKYTVSVFAKSTGDPQGVIRHYVVCSTPQSQYYLAEKHLFSTIPELINYHQHNSAGLISRLKYPVSQQNKNAPSTAGLGYGSWEIDPKDLTFLKELGTGQFGVVKYGKWRGQYDVAIKMIKEGSMSEDEFIEEAKVMMNLSHEKLVQLYGVCTKQRPIFIITEYMANGCLLNYLREMRHRFQTQQLLEMCKDVCEAMEYLESKQFLHRDLAARNCLVNDQGVVKVSDFGLSRYVLDDEYTSSVGSKFPVRWSPPEVLMYSKFSSKSDIWAFGVLMWEIYSLGKMPYERFTNSETAEHIAQGLRLYRPHLASEKVYTIMYSCWHEKADERPTFKILLSNILDVMDEES"}}, "key": {"[1]": {"molecular_target": "T1, Peptide 10: EDPIYVTLEGGKKK (version of peptide 2 used for the kinetic experiments)", "T1 chain": "EDPIYVTLEGGKKK"}, "[2]": {"molecular_target": "T2, Peptide 11: DEAIYATVAGGKKK (version of peptide 5 used for the kinetic experiments)", "T2 chain": "DEAIYATVAGGKKK"}}}
{"protein": "B1", "values": [{"measurement": "Km", "setting": "[1]", "result": 41, "unit": "µM"}, {"measurement": "kcat", "setting": "[1]", "result": 0.013, "unit": "s⁻¹"}, {"measurement": "kcat/Km", "setting": "[1]", "result": 304, "unit": "s⁻¹ M⁻¹"}]}
{"protein": "B2", "values": [{"measurement": "2/5 kcat/Km ratio (peptide 2 against peptide 5)", "setting": "[1]", "result": 1.23}, {"measurement": "Km", "setting": "[1]", "result": "> 200", "unit": "µM"}, {"measurement": "kcat", "setting": "[1]", "result": "> 0.02", "unit": "s⁻¹"}, {"measurement": "kcat/Km", "setting": "[1]", "result": 95, "unit": "s⁻¹ M⁻¹"}, {"measurement": "Km", "setting": "[2]", "result": "> 200", "unit": "µM"}, {"measurement": "kcat", "setting": "[2]", "result": "> 0.02", "unit": "s⁻¹"}, {"measurement": "kcat/Km", "setting": "[2]", "result": 79, "unit": "s⁻¹ M⁻¹"}]}
{"protein": "B3", "values": [{"measurement": "2/5 kcat/Km ratio (peptide 2 against peptide 5)", "setting": "[1]", "result": 0.31}, {"measurement": "Km", "setting": "[1]", "result": 64, "unit": "µM"}, {"measurement": "kcat", "setting": "[1]", "result": 0.061, "unit": "s⁻¹"}, {"measurement": "kcat/Km", "setting": "[1]", "result": 970, "unit": "s⁻¹ M⁻¹"}, {"measurement": "Km", "setting": "[2]", "result": 84, "unit": "µM"}, {"measurement": "kcat", "setting": "[2]", "result": 0.26, "unit": "s⁻¹"}, {"measurement": "kcat/Km", "setting": "[2]", "result": 3170, "unit": "s⁻¹ M⁻¹"}]}
